Measured values published in publication PMC8485043.
Values joined by “and” are separate entries in the source; they are usually repeats but may differ in a detail not shown here. Equal entries are not always repeated.

Biological target: VDAC-ΔC, C-terminally truncated variant of Neurospora crassa VDAC lacking residues 269-283 (β19) (Neurospora crassa)
Test: SEC-MALS; protein folded in DM, no sterol; UV, MALS and differential refractive index detectors, protein-conjugate analysis in ASTRA

With “VDAC-ΔC, C-terminally truncated variant of Neurospora crassa VDAC lacking residues 269-283 (β19) (domain or fragment)” the stoichiometry N was 2 and 4.
